# B1: murine recombinant full-length prion protein (PrP23-231) (natural protein)
# chain: not shown
# notes: also called recombinant PrP; PrP23-231 fibril seed
# Biological target: the molecule itself
# Assay: RT-QuIC (seeded fibril conversion, thioflavin T fluorescence)
protein,measurement,value
B1,binding result,binds
